Residue numbers refer to the chain shown, from its start. In names and notes the source's numbering stands. One block for each binder: values may come before it.
Tests used:
[1] = molecular target: T1, Recombinant Human DLL4 (delta-like protein 4) (human, UniProt Q9NR61 27-524); test: ECL (MSD) multispot binding assay, antigen spotted on plate, Fab in solution;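 note: purified Fab incubated 1 h at 20 °C, detected via TAG-labelled antibody electrochemiluminescence, antigen spot compared with the blank in the same well, ratio at least 4 counted as hit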
T1 construct: Bought recombinant human DLL4 (R&D Systems Cat#1506-D4/CF); also called rHuman DLL4

Recombinant Human DLL4 = molecular target: T2, Recombinant Human DLL4 (human, UniProt Q9NR61 27-524); test: ELISA, DLL4 coated on the plate, Fab at 100 nM, signal minus blank
T2 construct: Bought recombinant human DLL4 (R&D Systems Cat#1506-D4/CF); also called delta-like protein 4; Delta-like 4

B1: Fab VH1-46_IGHD6-6*01_IGHJ1*01 S102A/S103P/S104F/H111F (APFF) & L6_IGKJ1*01 S30V (Fab, V domains shown)
VH: QVQLVQSGAEVKKPGASVKVSCKASGYTFTSYYMHWVRQAPGQGLEWMGIINPSGGSTSYAQKFQGRVTMTRDTSTSTVYMELSSLRSEDTAVYYCAREEYAPFSAEYFQFWGQGTLVTVSS
VL: EIVLTQSPATLSLSPGERATLSCRASQSVVSYLAWYQQKPGQAPRLLIYDASNRATGIPARFSGSGSGTDFTLTISSLEPEDFAVYYCQQRSNWPPWTFGQGTKVEIKR
notes: Fab made in E. coli; The constant parts (CH1 with His6 and Flag tags from plasmid A, kappa CL from plasmid C) are not added here; also called APFF & S30V
ECL signal [1]: 141000
Signal/Blank [1]: 497

B2: Fab VH1-46_IGHD6-6*01_IGHJ1*01 S102A/S103P/S104F/H111F (APFF) & L6_IGKJ1*01 S31H (Fab, V domains shown)
VH: B1 VH
VL: B1 VL with V30S, S31H
notes: Fab made in E. coli; The constant parts (CH1 with His6 and Flag tags from plasmid A, kappa CL from plasmid C) are not added here; also called APFF & S31H
Signal/Blank [1]: 838

B3: Fab VH1-46_IGHD6-6*01_IGHJ1*01 S102A/S103P/S104F/H111F (APFF) & L6_IGKJ1*01 S31Q (Fab, V domains shown)
VH: B1 VH
VL: B1 VL with V30S, S31Q
notes: Fab made in E. coli; The constant parts (CH1 with His6 and Flag tags from plasmid A, kappa CL from plasmid C) are not added here; also called APFF & S31Q
ECL signal [1]: 165000
Signal/Blank [1]: 406

B4: Fab VH1-46_IGHD6-6*01_IGHJ1*01 S102A/S103P/S104F/H111F (APFF) & L6_IGKJ1*01 S31T (Fab, V domains shown)
VH: B1 VH
VL: B1 VL with V30S, S31T
notes: Fab made in E. coli; The constant parts (CH1 with His6 and Flag tags from plasmid A, kappa CL from plasmid C) are not added here; also called APFF & S31T
ECL signal [1]: 191000
Signal/Blank [1]: 576

B5: Fab VH1-46_IGHD6-6*01_IGHJ1*01 S102A/S103P/S104F/H111F (APFF) & L6_IGKJ1*01 S31E (Fab, V domains shown)
VH: B1 VH
VL: B1 VL with V30S, S31E
notes: Fab made in E. coli; The constant parts (CH1 with His6 and Flag tags from plasmid A, kappa CL from plasmid C) are not added here; also called APFF & S31E
ECL signal [1]: 171000
Signal/Blank [1]: 517

B6: Fab VH1-46_IGHD6-6*01_IGHJ1*01 S102A/S103P/S104F/H111F (APFF) & L6_IGKJ1*01 S31R (Fab, V domains shown)
VH: B1 VH
VL: B1 VL with V30S, S31R
notes: Fab made in E. coli; The constant parts (CH1 with His6 and Flag tags from plasmid A, kappa CL from plasmid C) are not added here; also called APFF & S31R
ECL signal [1]: 166000
Signal/Blank [1]: 558

B7: Fab VH1-46_IGHD6-6*01_IGHJ1*01 S102A/S103P/S104F/H111F (APFF) & L6_IGKJ1*01 S31L (Fab, V domains shown)
VH: B1 VH
VL: B1 VL with V30S, S31L
notes: Fab made in E. coli; The constant parts (CH1 with His6 and Flag tags from plasmid A, kappa CL from plasmid C) are not added here; also called APFF & S31L
Signal/Blank [1]: 373

B11: Fab VH1-46_IGHD6-6*01_IGHJ1*01 S102A/S103P/S104F/H111F (APFF) & L6_IGKJ1*01 S31V (Fab, V domains shown)
VH: B1 VH
VL: B1 VL with V30S, S31V
notes: Fab made in E. coli; The constant parts (CH1 with His6 and Flag tags from plasmid A, kappa CL from plasmid C) are not added here; also called APFF & S31V
Signal/Blank [1]: 511

B14: Fab VH1-46_IGHD6-6*01_IGHJ1*01 S102A/S103P/S104F/H111F (APFF) & L6_IGKJ1*01 S31F (Fab, V domains shown)
VH: B1 VH
VL: B1 VL with V30S, S31F
notes: Fab made in E. coli; The constant parts (CH1 with His6 and Flag tags from plasmid A, kappa CL from plasmid C) are not added here; also called APFF & S31F
Signal/Blank [1]: 459

B15: Fab VH1-46_IGHD6-6*01_IGHJ1*01 S102A/S103P/S104F/H111F (APFF) & L6_IGKJ1*01 S31N (Fab, V domains shown)
VH: B1 VH
VL: B1 VL with V30S, S31N
notes: Fab made in E. coli; The constant parts (CH1 with His6 and Flag tags from plasmid A, kappa CL from plasmid C) are not added here; also called APFF & S31N
ECL signal [1]: 178000
Signal/Blank [1]: 605

B18: Fab VH5-51_IGHD5-18*01>3_IGHJ4*01 G100K/G104T G24T/S28R/G35V (H:KT TRV) & V3-4_IGLJ1*01 (Fab, V domains shown)
VH: EVQLVQSGAEVKKPGESLKISCKTSGYRFTSYWIVWVRQMPGKGLEWMGIIYPGDSDTRYSPSFQGQVTISADKSISTAYLQWSSLKASDTAMYYCARRKYSYTYDYFDYWGQGTLVTVSS
VL: QTVVTQEPSFSVSPGGTVTLTCGLSSGSVSTSYYPSWYQQTPGQAPRTLIYSTNTRSSGVPDRFSGSILGNKAALTITGAQADDESDYYCVLYMGSGISYVFGTGTKVTVL
notes: Fab with the parent (unmutated) light chain; expressed from plasmid A (CH1, His6 and Flag tags) and plasmid E (lambda CL); also called H:KT TRV & L:wt
ELISA Signal-blank (100 nM Fab) (Recombinant Human DLL4): 0.393

B19: Fab VH5-51_IGHD5-18*01>3_IGHJ4*01 G100K/G104T G24T/S28R/G35V (H:KT TRV) & V3-4_IGLJ1*01 M94G (Fab, V domains shown)
VH: B18 VH
VL: B18 VL with M94G
notes: Fab; expressed from plasmid A (CH1, His6 and Flag tags) and plasmid E (lambda CL)
ELISA Signal-blank (100 nM Fab) (Recombinant Human DLL4): 0.199

The next lines start with the values.

ECL signal [1]: 179000
Signal/Blank [1]: 351
B8: Fab VH1-46_IGHD6-6*01_IGHJ1*01 S102A/S103P/S104F/H111F (APFF) & L6_IGKJ1*01 S31K (Fab, V domains shown)
VH: B1 VH
VL: B1 VL with V30S, S31K
notes: Fab made in E. coli; The constant parts (CH1 with His6 and Flag tags from plasmid A, kappa CL from plasmid C) are not added here; also called APFF & S31K

Signal/Blank [1]: 882
B9: Fab VH1-46_IGHD6-6*01_IGHJ1*01 S102A/S103P/S104F/H111F (APFF) & L6_IGKJ1*01 S31A (Fab, V domains shown)
VH: B1 VH
VL: B1 VL with V30S, S31A
notes: Fab made in E. coli; The constant parts (CH1 with His6 and Flag tags from plasmid A, kappa CL from plasmid C) are not added here; also called APFF & S31A

Signal/Blank [1]: 378
B10: Fab VH1-46_IGHD6-6*01_IGHJ1*01 S102A/S103P/S104F/H111F (APFF) & L6_IGKJ1*01 S31M (Fab, V domains shown)
VH: B1 VH
VL: B1 VL with V30S, S31M
notes: Fab made in E. coli; The constant parts (CH1 with His6 and Flag tags from plasmid A, kappa CL from plasmid C) are not added here; also called APFF & S31M

ECL signal [1]: 188000
Signal/Blank [1]: 662
B12: Fab VH1-46_IGHD6-6*01_IGHJ1*01 S102A/S103P/S104F/H111F (APFF) & L6_IGKJ1*01 S31Y (Fab, V domains shown)
VH: B1 VH
VL: B1 VL with V30S, S31Y
notes: Fab made in E. coli; The constant parts (CH1 with His6 and Flag tags from plasmid A, kappa CL from plasmid C) are not added here; also called APFF & S31Y

Signal/Blank [1]: 541
B13: Fab VH1-46_IGHD6-6*01_IGHJ1*01 S102A/S103P/S104F/H111F (APFF) & L6_IGKJ1*01 S31I (Fab, V domains shown)
VH: B1 VH
VL: B1 VL with V30S, S31I
notes: Fab made in E. coli; The constant parts (CH1 with His6 and Flag tags from plasmid A, kappa CL from plasmid C) are not added here; also called APFF & S31I

Signal/Blank [1]: 156
B16: Fab VH1-46_IGHD6-6*01_IGHJ1*01 S102A/S103P/S104F/H111F (APFF) & L6_IGKJ1*01 S31P (Fab, V domains shown)
VH: B1 VH
VL: B1 VL with V30S, S31P
notes: Fab made in E. coli; The constant parts (CH1 with His6 and Flag tags from plasmid A, kappa CL from plasmid C) are not added here; also called APFF & S31P

Signal/Blank [1]: 313
B17: Fab VH1-46_IGHD6-6*01_IGHJ1*01 S102A/S103P/S104F/H111F (APFF) & L6_IGKJ1*01 S31D (Fab, V domains shown)
VH: B1 VH
VL: B1 VL with V30S, S31D
notes: Fab made in E. coli; The constant parts (CH1 with His6 and Flag tags from plasmid A, kappa CL from plasmid C) are not added here; also called APFF & S31D

ELISA Signal-blank (100 nM Fab) (Recombinant Human DLL4): 0.625
B20: Fab VH5-51_IGHD5-18*01>3_IGHJ4*01 G100K/G104T G24T/S28R/G35V (H:KT TRV) & V3-4_IGLJ1*01 V91C (Fab, V domains shown)
VH: B18 VH
VL: B18 VL with V91C
notes: as for B19

ELISA Signal-blank (100 nM Fab) (Recombinant Human DLL4): 0.317
B21: Fab VH5-51_IGHD5-18*01>3_IGHJ4*01 G100K/G104T G24T/S28R/G35V (H:KT TRV) & V3-4_IGLJ1*01 M94F (Fab, V domains shown)
VH: B18 VH
VL: B18 VL with M94F
notes: as for B19

From US20120316071A1 (published 2012)
